Measured values: publication PMC6335420, “The cell cycle regulator GpsB functions as cytosolic adaptor for multiple cell wall enzymes” (Nature Communications, 2019)
Where a chain is given by its changes, count along the chain named. Residues, ends and D or L forms follow the SMILES beside them. *: point of attachment. Fluorescein(5-Mal) = O=C1OC2(c3ccc(O)cc3Oc3cc(O)ccc32)c2ccc(N3C(=O)CC(*)C3=O)cc21; X1 = CN(C)c1ccc2c(-c3ccc(N4C(=O)CC(*)C4=O)cc3C(=O)[O-])c3ccc(=[N+](C)C)cc-3oc2c1; 5FAM = O=C1OC2(c3ccc(O)cc3Oc3cc(O)ccc32)c2ccc(C(=O)*)cc21

Columns and labels:
[1] = target: T1, SpGpsB1-63 (Streptococcus pneumoniae, UniProt Q8DR57); experiment: Fluorescence polarisation binding to SpGpsB1-63; conditions: FP; for reduction in affinity for SpGpsB1-63: relative to wild-type SpPBP2a23-45
T1 construct: The SpGpsB1-63 expression construct (pET28SpGpsB1-63) was prepared by PCR amplification of gpsB; His6 (N, cleaved yes); made in house; host or cells: E. coli BL21(DE3)
Excerpt: (§1) 75 the BsGpsB5-64:BsPBP11-17 complex.

[2] = target: T2, BsGpsB1-68Lys32Glu (Bacillus subtilis, UniProt P0CI74, K32E); experiment: Fluorescence polarisation binding to BsGpsB1-68Lys32Glu; conditions: FP, relative to wild-type LmPBPA1 peptide
T2 construct: His6 (N, cleaved yes); made in house; host or cells: E. coli BL21(DE3)
Excerpt: as §1

[3] = target: T3, BsPBP1_(1-32), TAMRA-labelled at position 16 (B. subtilis, UniProt P39793 1-32, Ser16Cys, TAMRA (maleimide) at position 16); experiment: fluorescence polarisation; GpsB protein titrated into fluorescently labelled peptide; 10 mM Tris.HCl pH 8.0, 250 mM NaCl, 0.1% reduced Triton X-100; fit to a 1:1 interaction model; conditions: both partners purified
T3 construct: PBP1, Bacillus subtilis, residues 1-32; also called BsPBPA1_(1-32); BsPBP1A_(1-32); source: E. coli, His-tagged MBP fusion purified (Ni-NTA), labelled, TEV-cleaved, ultrafiltration
T3 peptide (looked up): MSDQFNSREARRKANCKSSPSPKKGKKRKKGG

[4] = Circular dichroism thermal unfolding of BsGpsB1-68 variants; type: physicochemical; conditions: CD at 222 nm vs temperature, 4.5 μM protein, 20 mM sodium phosphate (pH 7.8) 150 mM NaCl, 1 °C/min
Method: CD spectra were recorded on a JASCO J-810 spectropolarimeter with a PTC-4235 Peltier temperature controller using 1 mm path length quartz cuvettes. For full wavelength scans a scan speed of 10 nm^−1min^−1 and a response time of 4 s were used, the final spectra were the average of at least four measurements. BsPBP1_1-32 CD spectra were recorded at 4 °C in a buffer of 20 mM sodium phosphate, pH 7.3 at a peptide concentration of 25 μM. Peptide helical contents were estimated from molar ellipticities at 222 nm using the equation helix = [θ]222 nm / (39,500(1–2.57/n))[78] where n is the number of residues in the peptide. LmPBPA1_1-15 CD spectra were analysed at 40 μM in 20 mM sodium phosphate buffer, pH 7.8, for samples containing 0, 40 and 60% trifluoroethanol (TFE). For samples containing 80% TFE, 5 mM sodium phosphate buffer, pH 7.8, was used. The CD spectra of BsGpsB1-68 proteins were measured at a concentration of 4.5 μM in a buffer of 20 mM sodium phosphate (pH 7.8) 150 mM NaCl. For thermal melt experiments, a response time of 8 s and scan rate of 1 °C^−1min^−1 were used. All thermal melts were reversible as CD spectra recorded before and after the melts in the wavelength range 200–240 nm could be superimposed.

T1 sequence (Q8DR57 1-63): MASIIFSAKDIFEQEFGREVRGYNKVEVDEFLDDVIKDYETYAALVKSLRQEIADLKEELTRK
T2 sequence (P0CI74 1-68 K32E): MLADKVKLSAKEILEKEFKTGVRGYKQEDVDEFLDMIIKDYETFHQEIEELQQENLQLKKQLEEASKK

## CC[C@H](C)[C@H](NC(=O)[C@H](CC(C)C)NC(=O)[C@H](CCCNC(=N)N)NC(=O)[C@H](CCSC)NC(=O)CNC(=O)c1ccc2c(c1)C(=O)OC21c2ccc(O)cc2Oc2cc(O)ccc21)C(=O)N[C@@H](CS)C(=O)N[C@@H](CCSC)C(=O)N[C@@H](CCCNC(=N)N)C(=O)N[C@@H](CCCCN)C(=O)N[C@@H](Cc1ccccc1)C(=O)N[C@@H](CC(N)=O)C(=O)N[C@@H](CO)C(=O)N[C@@H](Cc1c[nH]cn1)C(=O)N[C@@H](CO)C(=O)N[C@H](C(=O)N1CCC[C@H]1C(=O)N[C@H](C(=O)N[C@@H](CCCNC(=N)N)C(=O)O)[C@@H](C)CC)[C@@H](C)CC [Fluorescein-SpPBP2b1-17] (5FAM-GMRLICMRKFNSHSIPIR-OH; N-terminus and C-terminus assumed)
[1]
  binding to SpGpsB1-63 (in words): not

## CC[C@H](C)[C@H](NC(=O)[C@@H]1CCCN1C(=O)[C@H](CSC1CC(=O)N(c2ccc(-c3c4ccc(=[N+](C)C)cc-4oc4cc(N(C)C)ccc34)c(C(=O)[O-])c2)C1=O)NC(=O)[C@@H](NC(=O)[C@H](CCC(N)=O)NC(=O)[C@H](C)NC(=O)[C@H](CC(C)C)NC(=O)[C@H](CCCCN)NC(=O)[C@H](CCCCN)NC(=O)[C@H](CCCNC(=N)N)NC(=O)[C@H](CC(=O)O)NC(=O)[C@H](CO)NC(=O)[C@H](CCCCN)NC(=O)[C@H](CO)NC(=O)[C@H](CCCCN)NC(=O)[C@H](CCCNC(=N)N)NC(=O)[C@H](CC(C)C)NC(=O)[C@@H](NC(=O)[C@@H](NC(=O)[C@H](CO)NC(=O)[C@H](CC(=O)O)NC(=O)[C@H](CO)NC(=O)[C@H](CC(=O)O)NC(=O)[C@H](CCSC)NC(=O)[C@H](CO)NC(=O)CN)[C@@H](C)O)[C@@H](C)CC)C(C)C)C(=O)O (stereo partly shown) [TAMRA-SpPBP2a23-45 Arg31LysArg33Lys] (H-GSMDSDSTILRKSKSDRKKLAQVC(X1)PI-OH)
[1]
  reduction in affinity for SpGpsB1-63: > 25 fold

## CSCC[C@H](NC(=O)[C@H](CO)NC(=O)CN)C(=O)N[C@@H](C)C(=O)N[C@@H](CC(=O)O)C(=O)N[C@@H](CCCCN)C(=O)N1CCC[C@H]1C(=O)N[C@@H](CCC(N)=O)C(=O)N[C@H](C(=O)N[C@@H](C)C(=O)N[C@@H](CO)C(=O)N[C@@H](CCC(N)=O)C(=O)N[C@@H](Cc1ccc(O)cc1)C(=O)N[C@@H](CCCNC(=N)N)C(=O)N[C@@H](CC(N)=O)C(=O)N[C@@H](CCCCN)C(=O)N[C@@H](CCC(N)=O)C(=O)N[C@@H](CCCNC(=N)N)C(=O)NCC(=O)NCC(=O)N[C@@H](CSC1CC(=O)N(c2ccc3c(c2)C(=O)OC32c3ccc(O)cc3Oc3cc(O)ccc32)C1=O)C(=O)N[C@@H](CCCCN)C(=O)O)[C@@H](C)O (stereo partly shown) [Fluorescein-LmPBPA11-20 Arg8AlaSer16Arg] (H-GSMADKPQTASQYRNKQRGGC(Fluorescein(5-Mal))K-OH; N-terminus and C-terminus assumed)
[2]
  reduction in affinity for BsGpsB1-68Lys32Glu: at least 10 fold

## CC[C@H](C)[C@H](NC(=O)[C@@H]1CCCN1C(=O)[C@H](CSC1CC(=O)N(c2ccc(-c3c4ccc(=[N+](C)C)cc-4oc4cc(N(C)C)ccc34)c(C(=O)[O-])c2)C1=O)NC(=O)[C@@H](NC(=O)[C@H](CCC(N)=O)NC(=O)[C@H](C)NC(=O)[C@H](CC(C)C)NC(=O)[C@H](CCCCN)NC(=O)[C@H](CCCCN)NC(=O)[C@H](CCCNC(=N)N)NC(=O)[C@H](CC(=O)O)NC(=O)[C@H](CO)NC(=O)[C@H](CCCNC(=N)N)NC(=O)[C@H](CO)NC(=O)[C@H](CCCCN)NC(=O)[C@H](CCCNC(=N)N)NC(=O)[C@H](CC(C)C)NC(=O)[C@@H](NC(=O)[C@@H](NC(=O)[C@H](CO)NC(=O)[C@H](CC(=O)O)NC(=O)[C@H](CO)NC(=O)[C@H](CC(=O)O)NC(=O)[C@H](CCSC)NC(=O)[C@H](CO)NC(=O)CN)[C@@H](C)O)[C@@H](C)CC)C(C)C)C(=O)O (stereo partly shown) [TAMRA-SpPBP2a23-45 Arg31Lys] (H-GSMDSDSTILRKSRSDRKKLAQVC(X1)PI-OH)
[1]
  reduction in affinity for SpGpsB1-63: 2 fold

B1: BsGpsB_(1-68)^Asp35Ala (domain or fragment, B. subtilis, UniProt P0CI74 1-68, looked up)
chain: MLADKVKLSAKEILEKEFKTGVRGYKQEDVDKFLAMIIKDYETFHQEIEELQQENLQLKKQLEEASKK
notes: GpsB, Bacillus subtilis, residues 1-68; source: E. coli, purified (Ni-NTA, thrombin, size exclusion)
[3]
  fold reduction in affinity against wild type: > 8 fold

B2: BsGpsB^Tyr25Phe: BsGpsB1-68 variant (protein)
chain: B1 chain with Y25F, A35D
modifications: left off: His6, end not stated, cleaved
notes: BsGpsB1-68 variant
[4]
  impact of mutation on protein stability: little impact on protein stability

B3: BsGpsB1-68^Glu17Ala: BsGpsB1-68 variant (protein)
chain: B1 chain with E17A, A35D
modifications: left off: His6, N-terminal, cleaved
notes: BsGpsB1-68 variant
[4]
  impact of mutation on protein stability: little impact on protein stability

B4: BsGpsB1-68^Asp35Ala: BsGpsB1-68 variant (protein)
chain: B1 chain
modifications: left off: His6, N-terminal, cleaved
notes: BsGpsB1-68 variant
[4]
  impact of mutation on protein stability: little impact on protein stability

B5: BsGpsB1-68^Asp31Ala: BsGpsB1-68 variant (protein)
chain: B1 chain with D31A, A35D
modifications: left off: His6, N-terminal, cleaved
notes: BsGpsB1-68 variant
[4]
  impact of mutation on protein stability: little impact on protein stability

B6: BsGpsB_(1-68)^Glu17Ala (domain or fragment, B. subtilis, UniProt P0CI74 1-68, looked up)
chain: B1 chain with E17A, A35D
notes: as for B1
[3]
  fold reduction in affinity against wild type: > 8 fold
